Experiments:
MARV Angola GPe [1] = target: T1, MARV Angola GPe (Marburg virus, strain Angola, UniProt Q1PD50 19-648); assay: ELISA, GP coated 200 ng/well, mAb at 2 ug/mL
T1 construct: extracellular domain; also called Marburg GP (Angola) ectodomain
T1 sequence: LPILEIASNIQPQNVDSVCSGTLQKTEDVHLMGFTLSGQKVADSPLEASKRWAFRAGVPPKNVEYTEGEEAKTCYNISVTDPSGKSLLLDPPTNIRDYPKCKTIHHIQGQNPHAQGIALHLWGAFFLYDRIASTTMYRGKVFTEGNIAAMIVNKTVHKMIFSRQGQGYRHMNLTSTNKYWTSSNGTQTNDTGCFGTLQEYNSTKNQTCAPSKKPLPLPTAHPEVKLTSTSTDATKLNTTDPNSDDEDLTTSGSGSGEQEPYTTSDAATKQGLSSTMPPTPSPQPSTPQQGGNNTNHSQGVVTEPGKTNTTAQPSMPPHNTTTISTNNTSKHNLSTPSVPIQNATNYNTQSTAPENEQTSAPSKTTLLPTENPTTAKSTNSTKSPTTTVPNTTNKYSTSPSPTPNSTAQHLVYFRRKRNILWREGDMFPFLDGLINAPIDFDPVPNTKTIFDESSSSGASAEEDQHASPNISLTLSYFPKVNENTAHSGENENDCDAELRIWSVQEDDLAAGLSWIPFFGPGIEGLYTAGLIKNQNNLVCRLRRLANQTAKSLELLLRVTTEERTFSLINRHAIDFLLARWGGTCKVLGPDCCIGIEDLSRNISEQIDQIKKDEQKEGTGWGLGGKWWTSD

MARV Ravn GPe = target: T2, MARV Ravn GPe (Marburg virus, strain Ravn, UniProt Q1PDC7 19-648); assay: ELISA, GP coated 200 ng/well, mAb at 2 ug/mL
T2 construct: extracellular domain; also called Marburg GP (Ravn) ectodomain
T2 sequence: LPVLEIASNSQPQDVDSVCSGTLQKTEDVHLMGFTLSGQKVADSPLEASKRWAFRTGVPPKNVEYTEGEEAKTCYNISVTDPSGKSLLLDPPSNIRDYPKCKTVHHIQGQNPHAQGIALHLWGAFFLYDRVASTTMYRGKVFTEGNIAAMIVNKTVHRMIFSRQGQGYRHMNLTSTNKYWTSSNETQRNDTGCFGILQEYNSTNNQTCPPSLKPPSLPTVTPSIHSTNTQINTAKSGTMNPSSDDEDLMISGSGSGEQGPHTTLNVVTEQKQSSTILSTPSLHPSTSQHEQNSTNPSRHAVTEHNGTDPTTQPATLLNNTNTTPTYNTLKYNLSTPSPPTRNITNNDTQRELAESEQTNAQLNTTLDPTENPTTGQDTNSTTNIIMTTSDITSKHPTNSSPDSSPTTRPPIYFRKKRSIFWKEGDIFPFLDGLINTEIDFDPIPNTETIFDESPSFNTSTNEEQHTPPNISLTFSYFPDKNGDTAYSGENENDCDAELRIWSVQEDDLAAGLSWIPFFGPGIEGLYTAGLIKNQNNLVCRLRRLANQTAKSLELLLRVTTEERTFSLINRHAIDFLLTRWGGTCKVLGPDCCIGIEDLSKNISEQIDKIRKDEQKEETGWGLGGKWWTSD

MARV Musoke GPe [2] = target: T3, MARV Musoke GPe (Marburg virus, strain Musoke, UniProt P35253 19-648); assay: ELISA, GP coated 200 ng/well, mAb at 2 ug/mL
T3 construct: extracellular domain; also called Marburg GP (Musoke) ectodomain
T3 sequence: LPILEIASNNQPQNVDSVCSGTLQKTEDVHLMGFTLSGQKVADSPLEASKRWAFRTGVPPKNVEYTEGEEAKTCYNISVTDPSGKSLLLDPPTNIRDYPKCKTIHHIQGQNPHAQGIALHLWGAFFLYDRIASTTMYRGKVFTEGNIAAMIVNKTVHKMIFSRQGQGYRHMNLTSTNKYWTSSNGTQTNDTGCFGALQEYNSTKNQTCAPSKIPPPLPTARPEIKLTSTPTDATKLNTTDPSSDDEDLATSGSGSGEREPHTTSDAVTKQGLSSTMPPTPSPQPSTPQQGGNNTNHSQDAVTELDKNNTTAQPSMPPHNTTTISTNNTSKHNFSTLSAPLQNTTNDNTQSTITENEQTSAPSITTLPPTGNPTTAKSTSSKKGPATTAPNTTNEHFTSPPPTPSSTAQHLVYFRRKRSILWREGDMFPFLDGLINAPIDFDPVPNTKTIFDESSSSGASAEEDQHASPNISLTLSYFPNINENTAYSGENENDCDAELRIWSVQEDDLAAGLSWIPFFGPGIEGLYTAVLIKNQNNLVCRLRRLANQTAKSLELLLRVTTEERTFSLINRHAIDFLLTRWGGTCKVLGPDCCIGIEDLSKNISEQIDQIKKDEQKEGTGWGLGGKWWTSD

MARV Angola GPe [3] = target: T1, MARV Angola GPe; assay: ELISA on coated GPe (200 ng/well)
MARV Musoke GPe [4] = target: T3, MARV Musoke GPe; assay: ELISA on coated GPe (200 ng/well)

| Binder | OD405 @ 30 min (MARV Angola GPe [1]) [OD405] | OD405 @ 30 min (MARV Ravn GPe) [OD405] | OD405 @ 30 min (MARV Musoke GPe [2]) [OD405] | binding result (MARV Angola GPe [3]) | binding result (MARV Musoke GPe [4]) |
| --- | --- | --- | --- | --- | --- |
| huCAN40G1 (antibody, V domains shown, also called humanized CAN40G1) VH: EVQLQQSGPEVKKPGASVKVSCRTSGYTFTEYTIHWVKQAPGKGLEWIGGINPNHGGTLYNQKFKGRVTLTVDKSSSTAYMELSRLRSDDTAVYYCARFTYDYWGQGTLVTVSS VL: DIVLTQSPASLAVSLGERATISCKASQSVDHDGDSYMNWYQQKPGQPPKLLIYATSNLESGIPARFSGSGSGTDFTLTISSLQAEDVATYYCQQSYEVPLTFGAGTKLEIK | 3.83 | 2.75 | 2.73 | – | – |
| muCAN40G1 (antibody, V domains shown, also called murine CAN40G1) VH: EVQLQQSGPELVKPGASVKISCRTSGYTFTEYTIHWVKQSRGKSLEWIGGINPNHGGTLYNQKFKVKATLTVDKSSSTAYMELRSLTSEDSAVYYCARFTYDYWGQGTTLTVSS VL: DIVLTQSPASLAVSLGQRASISCKASQSVDHDGDSYMNWYQQKPGQPPKLLIYATSNLESGIPARFSGSGSGTDFTLNIHPVEEEDAATYYCQQSYEVPLTFGAGTKLELK | 0.857 | 0.504 | 0.536 | – | – |
| huCAN54G2 (antibody, V domains shown, also called humanized CAN54G2) VH: QVQLQQSGTEVKKPGASVKVSCKASGYDFTNFWLGWIRQAPGQGLEWIGDIYPGGDNTYYNEKFKGRVTLTADKSSNTAYMELSSLRSEDTAVYFCFMILYTLDYWGQGTLVTVSS VL: DVVMTQTPLTLPVTLGQPASISCTSSQSLLNSDGETYLNWLLQRPGQSPKRLIHLVSKLDSGVPDRFSGSGSGTDFTLKISRVEAEDVGVYYCWQGTHFPWTFGGGTKVEIK | 0.502 | 0.89 | 0.908 | – | – |
| muCAN30G5 (antibody, V domains shown, also called murine CAN30G5) VH: EVQLVESGGGLVQPKGSLKLSCAASGFAFNSYAMHWVCQAPGKGLEWVARIRIKSGNYATSYAGSVTDRFTVSRDDSQNLFYLQMNNLKTEDTAMYYCVREWEGAMDYWGQGTSVTVSS VL: DIVLTQSPLSLPVSLGDQASISCRSSQSLVHSNGNTYLHWYLQKPGQSPNLLIYKVSNRFSGVPDRFSGSGSGTDFTLKISRVEAEDLGVYFCSQSTHVPWTFGGGTKLEIK | – | 0.16 | – | no binding | no binding |
| huCAN30G5 (antibody, V domains shown, also called humanized CAN30G5) VH: EVQLVESGGGLVQPGGSLKLSCAASGFAFNSYAMHWVRQASGKGLEWVARIRIKSGNYATSYAGSVKGRFTVSRDDSKNTFYLQMNSLKTEDTAMYYCVREWEGAMDYWGQGTLVTVSS VL: DIVLTQSPLSLPVTLGQPASISCRSSQSLVHSNGNTYLHWYQQRPGQSPRLLIYKVSNRFSGVPDRFSGSGSGTDFTLKISRVEAEDVGVYYCSQSTHVPWTFGGGTKVEIK | – | 2.74 | – | no binding | no binding |
| muCAN54G2 (antibody, V domains shown, also called murine CAN54G2) VH: QVQLQQSGTELVRPGTSVKISCKASGYDFTNFWLGWIKQRPGHGLEWIGDIYPGGDNTYYNEKFKGKVTLTADKSSNTAYMQFSSLTSEDSAVYFCFMILYTLDYWGQGTSVTVSS VL: not shown | 0.15 | 0.16 | 0.185 | – | – |

— patent publication US20180030118A1 (EMERGENT BIOSOLUTIONS CANADA, published 2018)
